The values below come from patent US7202329 (MYRIAD GENETICS, dated 2007).

Assay in all cases: yeast two-hybrid
Assay [1] addresses T1, Tsg101 (aa 240-391) (human, UniProt Q99816 240-390).
T1 construct: range 240-391; also called C-terminal fragment of Tsg101; amino acid residues 240-390
T1 sequence (looked up): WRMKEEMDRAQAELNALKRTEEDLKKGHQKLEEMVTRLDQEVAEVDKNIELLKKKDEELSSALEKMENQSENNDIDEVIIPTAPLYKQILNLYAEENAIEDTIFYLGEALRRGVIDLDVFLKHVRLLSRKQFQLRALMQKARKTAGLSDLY

For assay [2], the target named is T2, Tsg101 (aa 50-391) (human, UniProt Q99816 50-390).
T2 construct: range 50-391
T2 sequence (looked up): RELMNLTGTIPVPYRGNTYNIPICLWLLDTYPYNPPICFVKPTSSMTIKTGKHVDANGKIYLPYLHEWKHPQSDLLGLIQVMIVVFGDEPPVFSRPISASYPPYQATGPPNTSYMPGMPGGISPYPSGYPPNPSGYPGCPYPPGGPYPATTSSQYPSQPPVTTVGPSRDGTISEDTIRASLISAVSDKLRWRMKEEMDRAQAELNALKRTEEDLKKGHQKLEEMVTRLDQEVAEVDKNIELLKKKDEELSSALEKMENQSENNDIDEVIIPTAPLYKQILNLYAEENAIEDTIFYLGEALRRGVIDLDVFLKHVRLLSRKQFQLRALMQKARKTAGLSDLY

Assay [3] deals with T3, Tsg101 (aa 231-391) (human, UniProt Q99816 231-390).
T3 sequence (looked up): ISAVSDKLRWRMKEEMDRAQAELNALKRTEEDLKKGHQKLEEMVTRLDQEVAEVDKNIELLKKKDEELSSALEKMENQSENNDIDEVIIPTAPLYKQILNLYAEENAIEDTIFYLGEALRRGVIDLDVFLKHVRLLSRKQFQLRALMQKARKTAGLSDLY

Assay [4] deals with T4, Tsg101 (aa 140-270) (human, UniProt Q99816 140-270).
T4 construct: range 140-270
T4 sequence (looked up): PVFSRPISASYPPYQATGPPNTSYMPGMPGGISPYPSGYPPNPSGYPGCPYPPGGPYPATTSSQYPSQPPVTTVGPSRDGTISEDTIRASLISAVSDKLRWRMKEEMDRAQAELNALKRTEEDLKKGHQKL

B1: GTPase-activating protein 1 (aa 1404-1553) (other, UniProt P46940 1404-1553, looked up)
chain: LTEILETPATSEQEAEHQRAMQRRAIRDAKTPDKMKKSKSVKEDSNLTLQEKKEKIQTGLKKLTELGTVDPKNKYQELINDIARDIRNQRRYRQRRKAELVKLQQTYAALNSKATFYGEQVDYYKSYIKTCLDNLASKGKVSKKPREMKG
notes: range 1404-1553; also called IQGAP1; IQGAP
Turning to B1, the binding result in assay [1] is recorded as “binds”.

B2: hypothetical protein FLJ10540 (aa 1-117) (other, UniProt Q53EZ4 1-117, looked up)
chain: MSSRSTKDLIKSKWGSKPSNSKSETTLEKLKGEIAHLKTSVDEITSGKGKLTDKERHRLLEKIRVLEAEKEKNAYQLTEKDKEIQRLRDQLKARYSTTTLLEQLEETTREGERREQV
notes: range 1-117
Consider B2, for which the binding result in assay [2] is on record as “binds”.

B3: Zinc finger protein 231 (ZNF231) (aa 2308-2438) (other, UniProt Q9UPA5 2308-2438, looked up)
chain: EEPLPTTTPAAIKEAAGAPAPAPLAGQKPPADAAPGGGSGALSRPGFEKEEASQEERQRKQQEQLLQLERERVELEKLRQLRLQEELERERVELQRHREEEQLLVQRELQELQTIKHHVLQQQQEERQAQF
notes: range 2308-2438
For the molecule B3, the binding result in assay [3] is “binds”.

B4: Rho-associated (ROCK1) (aa 462-617) (other, UniProt Q13464 462-617, looked up)
chain: KIMKELDEEGNQRRNLESTVSQIEKEKMLLQHRINEYQRKAEQENEKRRNVENEVSTLKDQLEDLKKVSQNSQLANEKLSQLQKQLEEANDLLRTESDTAVRLRKSHTEMSKSISQLESLNRELQERNRILENSKSQTDKDYYQLQAILEAERRDR
notes: also called Rho-associated coiled coil-containing kinase ROCK1
On to B4, for which, in assay [3], the binding result is “binds”.

B5: GTPase-activating protein 1 (aa 1439-1565) (other, UniProt P46940 1439-1565, looked up)
chain: KKSKSVKEDSNLTLQEKKEKIQTGLKKLTELGTVDPKNKYQELINDIARDIRNQRRYRQRRKAELVKLQQTYAALNSKATFYGEQVDYYKSYIKTCLDNLASKGKVSKKPREMKGKKSKKISLKYTA
notes: range 1439-1565; also called IQGAP1; IQGAP
B5: the binding result in assay [1] is “binds”.

B6: hypothetical protein FLJ10540 (aa 1-120) (other, UniProt Q53EZ4 1-120, looked up)
chain: MSSRSTKDLIKSKWGSKPSNSKSETTLEKLKGEIAHLKTSVDEITSGKGKLTDKERHRLLEKIRVLEAEKEKNAYQLTEKDKEIQRLRDQLKARYSTTTLLEQLEETTREGERREQVLKA
notes: range 1-120
For B6, in assay [4], the binding result is recorded as “binds”.

B7: GTPase-activating protein 1 (aa 1406-1547) (other, UniProt P46940 1406-1547, looked up)
chain: EILETPATSEQEAEHQRAMQRRAIRDAKTPDKMKKSKSVKEDSNLTLQEKKEKIQTGLKKLTELGTVDPKNKYQELINDIARDIRNQRRYRQRRKAELVKLQQTYAALNSKATFYGEQVDYYKSYIKTCLDNLASKGKVSKK
notes: range 1406-1547; also called IQGAP1; IQGAP
As for B7, in assay [1], the binding result was “binds”.

B8: hypothetical protein FLJ10540 (aa 1-74) (other, UniProt Q53EZ4 1-74, looked up)
chain: MSSRSTKDLIKSKWGSKPSNSKSETTLEKLKGEIAHLKTSVDEITSGKGKLTDKERHRLLEKIRVLEAEKEKNA
notes: range 1-74
Turning to B8, in assay [4], the binding result is “binds”.

B9: Chromosome-associated polypeptide HCAP (aa 208-300) (other, human, UniProt Q9UQE7 208-300, looked up)
chain: EELAQYQKWDKMRRALEYTIYNQELNETRAKLDELSAKRETSGEKSRQLRDAQQDARDKMEDIERQVRELKTKISAMKEEKEQLSAERQEQIK
notes: range 208-300
For the molecule B9, the binding result in assay [3] is reported as “binds”.

B10: hypothetical protein FLJ10540 (aa 1-231) (other, UniProt Q53EZ4 1-231, looked up)
chain: MSSRSTKDLIKSKWGSKPSNSKSETTLEKLKGEIAHLKTSVDEITSGKGKLTDKERHRLLEKIRVLEAEKEKNAYQLTEKDKEIQRLRDQLKARYSTTTLLEQLEETTREGERREQVLKALSEEKDVLKQQLSAATSRIAELESKTNTLRLSQTVAPNCFNSSINNIHEMEIQLKDALEKNQQWLVYDQQREVYVKGLLAKIFELEKKTETAAHSLPQQTKKPESEGYLQE
Consider B10, for which the binding result in assay [2] is on record as “binds”.

B11: hypothetical protein FLJ10540 (aa 2-132) (other, UniProt Q53EZ4 2-132, looked up)
chain: SSRSTKDLIKSKWGSKPSNSKSETTLEKLKGEIAHLKTSVDEITSGKGKLTDKERHRLLEKIRVLEAEKEKNAYQLTEKDKEIQRLRDQLKARYSTTTLLEQLEETTREGERREQVLKALSEEKDVLKQQL
On to B11, for which, in assay [4], the binding result was “binds”.

B12: Tropomyosin TM30 p1 (TPM4) (aa 79-142) (other, human, UniProt P67936 79-142, looked up)
chain: EAEKAADESERGMKVIENRAMKDEEKMEIQEMQLKEAKHIAEEADRKYEEVARKLVILEGELER
notes: range 79-142
Take B12: in assay [3], the binding result is listed as “binds”.

B13: mitotic spindle coiled-coil related protein (aa 942-1021) (other, UniProt Q96R06 942-1021, looked up)
chain: LGSDKSAFTRVASMVSLQPAETPGMEESLAEMSIMTTELQSLCSLLQESKEEAIRTLQRKICELQARLQAQEEQHQEVQK
notes: range 942-1021
Regarding B13, the binding result in assay [1] is listed as “binds”.

B14: Tropomyosin TM30 p1 (TPM4) (aa 91-142) (other, human, UniProt P67936 91-142, looked up)
chain: MKVIENRAMKDEEKMEIQEMQLKEAKHIAEEADRKYEEVARKLVILEGELER
notes: range 91-142
For B14, the binding result in assay [3] is given as “binds”.

B15: intersectin 1 (aa 437-584) (other, UniProt Q15811 437-584, looked up)
chain: AKRELERQRQLEWERNRRQELLNQRNKEQEDIVVLKAKKKTLEFELEALNDKKHQLEGKLQDIRCRLTTQRQEIESTNKSRELRIAEITHLQQQLQESQQMLGRLIPEKQILNDQLKQVQQNSLHRDSLVTLKRALEAKELARQHLRD
notes: range 437-584
Take B15: the binding result in assay [1] is “binds”.

B16: GTPase-activating protein 1 (aa 1463-1568) (other, UniProt P46940 1463-1568, looked up)
chain: LKKLTELGTVDPKNKYQELINDIARDIRNQRRYRQRRKAELVKLQQTYAALNSKATFYGEQVDYYKSYIKTCLDNLASKGKVSKKPREMKGKKSKKISLKYTAARL
notes: range 1463-1568; also called IQGAP1; IQGAP
With B16, in assay [1], the binding result is “binds”.

B17: intersectin 1 (aa 436-547) (other, UniProt Q15811 436-547, looked up)
chain: AAKRELERQRQLEWERNRRQELLNQRNKEQEDIVVLKAKKKTLEFELEALNDKKHQLEGKLQDIRCRLTTQRQEIESTNKSRELRIAEITHLQQQLQESQQMLGRLIPEKQI
notes: range 436-547
B17: the binding result in assay [1] was “binds”.

B18: GTPase-activating protein 1 (aa 1439-1567) (other, UniProt P46940 1439-1567, looked up)
chain: KKSKSVKEDSNLTLQEKKEKIQTGLKKLTELGTVDPKNKYQELINDIARDIRNQRRYRQRRKAELVKLQQTYAALNSKATFYGEQVDYYKSYIKTCLDNLASKGKVSKKPREMKGKKSKKISLKYTAAR
notes: range 1439-1567; also called IQGAP1; IQGAP
As for B18, the binding result in assay [1] was “binds”.

B19: hypothetical protein FLJ10540 (aa 115-231) (other, UniProt Q53EZ4 115-231, looked up)
chain: EQVLKALSEEKDVLKQQLSAATSRIAELESKTNTLRLSQTVAPNCFNSSINNIHEMEIQLKDALEKNQQWLVYDQQREVYVKGLLAKIFELEKKTETAAHSLPQQTKKPESEGYLQE
As for B19, the binding result in assay [2] was “binds”.

B20: hypothetical protein FLJ10540 (aa 1-110) (other, UniProt Q53EZ4 1-110, looked up)
chain: MSSRSTKDLIKSKWGSKPSNSKSETTLEKLKGEIAHLKTSVDEITSGKGKLTDKERHRLLEKIRVLEAEKEKNAYQLTEKDKEIQRLRDQLKARYSTTTLLEQLEETTRE
notes: range 1-110
As to B20, the binding result in assay [2] is “binds”.

B21: hypothetical protein FLJ10540 (aa 1-115) (other, UniProt Q53EZ4 1-115, looked up)
chain: MSSRSTKDLIKSKWGSKPSNSKSETTLEKLKGEIAHLKTSVDEITSGKGKLTDKERHRLLEKIRVLEAEKEKNAYQLTEKDKEIQRLRDQLKARYSTTTLLEQLEETTREGERRE
notes: range 1-115
For B21, in assay [4], the binding result was “binds”.
